The values below come from patent US7148071B2, “Quantitative, high-throughput screening method for protein stability” (Duke University, priority 2000, dated 2006).

Data set [1] in a line: SUPREX (H/D exchange detected by MALDI MS) stability of unpurified proteins in crude E. coli lysates. It counts as physicochemical.
Data set [2] is described as follows: conventional CD denaturation curves of purified proteins. It counts as physicochemical. To be noted: purified protein, pH 8 buffer, FIG. 10A.
Method: FIGS. 10A–10C depict a conventional denaturation curve by CD with purified protein in 0.15 M NaCl, 20 mM Na2HPO4, 20 mM CH3COONa, pH 8.
The conditions of data set [3]: cited from earlier work.
The test system of a further data set is E. coli. It is filed as cell-based. As to the method: . […] In FIG. 10B, E. coli placed in various concentrations of urea for 30 minutes were studied at 23° C. (closed circles) and 15° C. (open circles).
(closed circles) and 15° C. (open circles). 1 ml cultures of BL21-(DE3) E. coli were pelleted and resuspended in LB media containing various urea concentrations and incubated for 30 minutes at 15° C. and 23° C. The cells were then pelleted and resuspended in 1 ml of LB media, diluted 1000, plated on LB-agar plates, incubated at 37° C. overnight and the number of colonies were counted.

A short description of data set [4]: SUPREX analysis of P22 Arc repressor, a homo-dimeric protein. To be noted: ΔGSUPREX adjusted to standard conditions (1 M dimer). It is filed as physicochemical.
Another data set has as its target P22 Arc repressor (Salmonella phage P22, UniProt P03050). Description: SUPREX analysis of P22 Arc repressor in the absence and presence of cognate DNA. It counts as binding. To be noted: Arc dimer 12 μM, absence of DNA, 20 mM phosphate pH=7.4. An excerpt: . At this concentration the stability of the Arc dimer is less than that detectable by SUPREX. Even with exchange times of several minutes, there is no transition detected in the SUPREX curve. The transition midpoint is shifted off scale to the left; […].

In the next data set the target is Trp repressor protein (Escherichia coli, UniProt P0A881). The procedure:
The concentration of Trp repressor in these experiments was 20 μM; and in (B) the concentration of L-tryptophan in each SUPREX buffer was 200 μM.

Data set [5] can be described thus: SUPREX analysis of RNase A, normal protocol. It is filed as physicochemical. The procedure:
Two different experimental protocols were employed for the SUPREX analysis of RNase A including one for normal analyses and one for high sensitivity analyses. H/D exchange reactions were initiated by combining 1 μL aliquots of a 100 μM solution of RNase A (fully protonated) in 20 mM sodium phosphate buffer (pH 7.4) with 9 μL volumes of 10 different deuterated exchange buffers containing 20 mM sodium phosphate (pD=7.4) and concentrations of GdmCl that varied between 0.5 and 4 M. After a specified exchange time (typically 65 minutes), a 1 μL aliquot of each exchange reaction was combined with 19 μL of a MALDI matrix solution. The MALDI matrix solution, which comprised an ice-cold, saturated, aqueous solution of SA containing 63% MeCN and 0.1% TFA (pH=3.0), effectively a quenched the H/D exchange reaction and prepared the sample for MALDI analysis. This matrix solution also included two internal mass standards, bovine ubiquitin (8566.1 Da) and hen egg lysozyme (14,303.7 Da). Subsequently, 1 μL of the quenched exchange reaction was spotted on a stainless steel MALDI plate and the solvent was evaporated under a gentle flow of air. […]
(§1) For both normal and high sensitivity analyses 10 replicate MALDI mass spectra were collected and analyzed to determine an average change in mass relative to the fully protonated sample (ΔMass) at each [GdmCl]. […]

The nature of data set [6]: high sensitivity SUPREX analysis of RNase A (micro-concentration step). It is filed as physicochemical. To be noted: high sensitivity protocol. As to the method: The high sensitivity SUPREX protocol outlined in FIG. 11 is similar to the SUPREX protocol disclosed above, with the exception that protein samples were subjected to a micro-concentration step after H/D exchange and prior to MALDI analysis. This micro-concentration step involved the use of a batch chromatography method utilizing 10 μL C18 SUPROTIPS™ from AmiKa (Columbia, Md.). It was preferred to quench the H/D exchange reaction with TFA (0.25% v/v) prior to binding the deuterated protein samples to the SUPROTIPS™. This facilitated preservation of the deuteration state of the protein. […]
as §1
Values for ΔM0, ΔM∞ and ΔGf were obtained by fitting the ΔMass versus [GdmCl] data to equation 1 using SigmaPlot and a nonlinear least squares analysis. value of 8.47 s^−1 was used, which was calculated based on the data of Bai et al (Bai et al., (1993) Proteins 17: 75–86), using the program SPHERE (Zhang, Ph.D. Thesis, Structural Biology and Molecular Biophysics, University of Pennsylvania); and an m value of 3.1 kcal mol^−1M^−1 was used, which was previously determined in other GdmCl-induced equilibrium unfolding experiments on RNase A (Pace et al., (1990) Biochem. 29: 2564–72). […]

For data set [7] the following is noted: cited from earlier work. The source holds these as a separate data set.

Marks after values point to notes of the source that are not given here. Ends that are not written are not given here.

For “λ6–85: monomeric form of the N-terminal domain of λ repressor, wild type”, the “ΔGf (kcal/mol) SUPREX” value in [1] was -5.0 ± 0.4 kcal/mol. The “stability by CD denaturation (linear extrapolation method)” value in [2] is 6.16 ± 0.13 kcal/mol. Besides, in data set [3] (25° C., purified protein, published values), the “ΔGf (kcal/mol) CD” value is listed as −4.4 ± 0.2^b kcal/mol. Further, in [3] (measured from CD denaturation curves), the “previously reported experimental m value” is reported as 2.1±0.1 kcal mol^−1 M^−1.
For `NC(N)=O` [urea], the “viability of E. coli cells” value in the data set on E. coli is “does not perturb the viability of the cells”.
Consider “P22 Arc repressor: P22 Arc repressor, a homo-dimeric protein (MKGMSKMPQFNLRWPREVLDLVRKVAEENGRSVNSEIYQRVMESFKKEGRIGA; also: homo-dimeric protein; UniProt P03050 1-53, looked up)”, for which the “standard ΔG value” in [4] amounted to 11.3 ± 0.2 kcal/mol. In addition, the “maximum ΔGSUPREX value” in the data set with P22 Arc repressor is given as less than 4.0 kcal/mol. In addition, the “previously reported ΔG value” in data set [3] (conventional CD denaturation studies (Bowie et al., 1989)) is on record as 11.0 kcal/mol.
Consider `N[C@@H](Cc1c[nH]c2ccccc12)C(=O)O` [L-tryptophan], for which, on Trp repressor protein, the ΔGBinding was -3.8 kcal/mol.

B1: RNase A: bovine pancreatic ribonuclease A (type I-A) (protein, UniProt P61823 27-150, looked up)
Ribonuclease pancreatic: KETAAAKFERQHMDSSTSAASSSNYCNQMMKSRNLTKDRCKPVNTFVHESLADVQAVCSQKNVACKNGQTNCYQSYSTMSITDCRETGSSKYPNCAYKTTQANKHIIVACEGNPYVPVHFDASV
For the molecule B1, the “ΔGf from one SUPREX curve” value in data set [5] (FIG. 12B, standard error of 0.2) was -12.9 kcal/mol; in data set [6] (standard error of 0.2), -12.4 kcal/mol. In addition, the “average ΔGf value and standard deviation” value in data set [5] (three replicate SUPREX analyses) was -12.4 ± 0.4 kcal/mol; in [6] (3 replicate SUPREX analyses) it was -12.0 ± 0.5 kcal/mol. The m value in data set [7] (GdmCl-induced equilibrium unfolding (Pace et al., 1990)) was 3.1 kcal mol^−1M^−1. Also, the “ΔGf by conventional fluorescence denaturation” value in [7] (Pace et al.) is -9.24 ± 0.64 kcal/mol.
